The results in this text go back to PMC4264766, “Purification, Cloning, Characterization, and N-Glycosylation Analysis of a Novel β-Fructosidase from Aspergillus oryzae FS4 Synthesizing Levan- and Neolevan-Type Fructooligosaccharides” (PLoS ONE, 2014).

Substrate in the data set: OC[C@H]1O[C@@](CO)(O[C@H]2O[C@H](CO)[C@@H](O)[C@H](O)[C@H]2O)[C@@H](O)[C@@H]1O
Kind of data set: initial rates, glucose release by glucose assay kit, confirmed by HPLC; Michaelis-Menten fit. The class given is biochemical, Aspergillus oryzae. The note with it: total activity (glucose release), 55°C, potassium phosphate buffer, 0.005–0.5 M sucrose.

Source text: initial rates, glucose release by glucose assay kit, confirmed by HPLC; Michaelis-Menten fit on N.BfrA (native β-fructosidase BfrA)

B1: N.BfrA (native β-fructosidase BfrA) (Aspergillus oryzae) (protein)
chain: IDYNAAPPNLSTLANGSLYDTWRPRAHILPPNGRIGDPCGHYTDPDTGLFHVGFLYNGSGIAGATTDDMVRFRDLNPNGSQFIMPGGKNDPVAVFDGSVIPKGIDDKPTLLYTSVTSLPIHWSIPYNPGAETQSLAVTSNGGRNFTKLDRPPVIPLPPSDSDVTAFRDPYAFQSPELDAAADSAPGTWYTAISGGVHEDGPGQFLYRQDQKEMSLESWEYLGLWWQEKVNTTWGNGDWAGGWGFNFETGNVFGLNEEGYSVDGEMFMTLGTEGSGTPIVSQVSSIHDMLWAAGNVSNNGNVTFTPTMAGVFDWGASGYAAAGHILPATSQVSTKSGAPDRFISFVWLTGDLFEQAKGYPTSQQNWVGTLLLPRELHIKTISNVVDNELAREEGSSWRVERGQSGIELKTLGIDIARETREALMSGPKITEPERTSKEAGLVPFQVSPTTKFHVLTAQLSFPRSARNSDLQAGFQVLSSDLESTTIYYQFSNESIIVDRSNTSAAAKTTNGIVSTNESGRLRLFDLQGDAQEIETLDLTVVVDNSVLEIYANGRFALSTWARSWYKNSTDIKFYHNGAGEVTFSNVTVSEGLFEAWPERV
notes: native, purified from A. oryzae FS4 mycelia; N-glycosylated; 95 kDa by SDS-PAGE, monomer; CDS 1860 bp; mature 65298 Da calculated; 40 kDa contaminant band
Broadly, the Km is the concentration of substrate that gives half-maximal velocity. As usually defined, the Vmax is the rate approached at saturating substrate. What is called kcat is the maximal rate divided by the concentration of active sites. As usually defined, the kcat/Km is the second-order rate constant that governs catalysis at low substrate concentration. Regarding B1, the Km is 37.19 ± 5.28 mM, the maximum rate (Vmax) was 1.28e+08 µM/min/mg, the catalytic constant (kcat) came out at 10000 ± 390 s⁻¹ and the specificity constant (kcat/Km) is 269000 ± 39700 M⁻¹ s⁻¹.
